# Assay results: paper PMC11260453
# T1: OC2 DNA-binding domain (UniProt O95948 330-485)
# T1 sequence: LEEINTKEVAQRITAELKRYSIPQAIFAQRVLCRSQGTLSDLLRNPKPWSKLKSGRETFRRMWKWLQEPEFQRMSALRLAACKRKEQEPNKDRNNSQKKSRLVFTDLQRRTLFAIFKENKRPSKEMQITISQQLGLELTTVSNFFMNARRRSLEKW
# B1: UGT2B15 promoter 20 bp mutant (dsDNA)
# DNA 1: TAACTTGGCTGTCTTTTCCT
# DNA 2: AGGAAAAGACAGCCAAGTTA
# B2: UGT2B15 promoter 20 bp WT (dsDNA)
# DNA 1: TAACTTGATTGATTTTTCCT
# DNA 2: AGGAAAAATCAATCAAGTTA
# Legend:
# [1] = target: T1, OC2 DNA-binding domain; assay: SPR
# [2] = target: T1, OC2 DNA-binding domain; assay: SPR; remark: listed apart in the source
Binder,binding result [1],Kd [2]
B1,no binding,–
B2,–,1.13 ± 0.01 nM
